Assay results: PMC3995651

Columns and labels:
Test in all cases: cross-linking; BS3 (0.5 or 5 mM), 5 µM protein in solution without liposomes, 20 mM Hepes, 150 mM NaCl, pH 7.4; 30 min room temperature, then 2 min 37°C with BS3; SDS-PAGE, Coomassie; step: monomers to dimer
[1] = biological target: BIN1 N-BAR domain (1-254) D151N (human)
[2] = biological target: BIN1 N-BAR domain (1-254) K35N (human)
[3] = biological target: BIN1 N-BAR domain (1-254) R154Q (human)
[4] = biological target: BIN1 N-BAR domain (1-254), wild type (human)

BIN1 N-BAR domain (1-254) D151N (domain or fragment)
stoichiometry N [1]: 2

BIN1 N-BAR domain (1-254) K35N (domain or fragment)
stoichiometry N [2]: 2

BIN1 N-BAR domain (1-254) R154Q (domain or fragment)
stoichiometry N [3]: 2

BIN1 N-BAR domain (1-254), wild type (domain or fragment)
stoichiometry N [4]: 2
